Assay results as given in patent US20230212254A1 (published 2023).

Molecular target: T1, FITC-labeled recombinant human PSMA protein (Acro, #PSA-HF244) (human, UniProt Q04609 44-750, FITC label)
T1 construct: Bought reagent
Test: flow cytometry, gating of CAR(+) cells for T cell subset analysis (FIG. 79)
Experimental: Eight days after the start of stimulation, the CAR-T cells constructed in Example 8 were analyzed for T cell subsets using a flow cytometer: they were classified into stem cell-like memory T cells (T memory stem cells, CD45RA⁺CCR7⁺), central memory T cells (CD45RA⁻CCR7⁺), effector memory T cells (CD45RA⁻ CCR7⁻) and effector T cells (CD45RA⁺CCR7⁻) according to the presence or absence of the expression of CD45RA and CCR7. […] In addition, when analyzing PSMA-specific CAR(+) cells, FITC-labeled recombinant human PSMA protein (Acro, #PSA-HF244) was used to stain the CAR.

T1 sequence (Q04609 44-750 limits assumed): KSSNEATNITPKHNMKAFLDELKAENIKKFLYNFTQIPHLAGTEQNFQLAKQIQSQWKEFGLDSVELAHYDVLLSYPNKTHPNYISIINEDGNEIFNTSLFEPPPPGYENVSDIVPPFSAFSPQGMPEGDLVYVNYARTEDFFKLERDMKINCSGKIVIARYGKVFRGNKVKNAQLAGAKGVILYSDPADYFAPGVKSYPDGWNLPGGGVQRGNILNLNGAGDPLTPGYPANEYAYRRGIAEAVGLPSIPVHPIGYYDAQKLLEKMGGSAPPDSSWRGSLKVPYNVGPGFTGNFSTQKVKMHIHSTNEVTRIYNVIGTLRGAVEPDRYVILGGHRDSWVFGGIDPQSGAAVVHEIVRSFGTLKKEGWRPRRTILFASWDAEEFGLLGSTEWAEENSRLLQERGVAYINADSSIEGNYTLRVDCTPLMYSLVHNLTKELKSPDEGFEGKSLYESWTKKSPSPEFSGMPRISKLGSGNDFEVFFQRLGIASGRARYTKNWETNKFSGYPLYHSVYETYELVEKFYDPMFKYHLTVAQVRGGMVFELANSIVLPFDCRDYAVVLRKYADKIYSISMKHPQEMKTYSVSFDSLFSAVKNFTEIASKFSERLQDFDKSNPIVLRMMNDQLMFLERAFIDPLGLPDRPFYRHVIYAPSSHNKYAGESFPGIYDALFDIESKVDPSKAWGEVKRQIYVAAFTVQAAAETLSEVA

binding result: binds
B1: PSMA-specific CAR (Pbbz): scFv derived from the PSMA-specific J591 antibody, CD8 hinge-transmembrane domain, 4-1BB co-stimulatory domain, CD3ζ intracellular … (other)
chain: DIVMTQSHKFMSTSVGDRVSIICKASQDVGTAVDWYQQKPGQSPKLLIYWASTRHTGVPDRFTGSGSGTDFTLTITNVQSEDLADYFCQQYNSYPLTFGAGTMLDLKRGGGGSGGGGSGGGGSEVQLQQSGPELKKPGTSVRISCKTSGYTFTEYTIHWVKQSHGKSLEWIGNINPNNGGTTYNQKFEDKATLTVDKSSSTAYMELRSLTSEDSAVYYCAAGWNFDYWGQGTTLTVSSTTTPAPRPPTPAPTIASQPLSLRPEACRPAAGGAVHTRGLDFACDIYIWAPLAGTCGVLLLSLVITLYCKRGRKKLLYIFKQPFMRPVQTTQEEDGCSCRFPEEEEGGCELRVKFSRSADAPAYQQGQNQLYNELNLGRREEYDVLDKRRGRDPEMGGKPRRKNPQEGLYNELQKDKMAEAYSEIGMKGERRRGKGHDGLYQGLSTATKDTYDALHMQALPPR
notes: The Pbbz#F, #C, #S2 and #FCS2 cells are treated as carrying the same CAR
